Legend:
[1] = target: biotin-FLAG-tagged TR2 and TR4 (biotin-FLAG-TR2 and biotin-FLAG-TR4 co-expressed in BirA-expressing MEL cells) (UniProt Q505F1); experiment: streptavidin purification of biotin-tagged TR2/TR4 from MEL nuclear extract, mass spectrometry, experiment #3
[2] = target: biotin-FLAG-tagged TR2 and TR4 (biotin-FLAG-TR2 and biotin-FLAG-TR4 co-expressed in BirA-expressing MEL cells) (UniProt Q505F1); experiment: streptavidin purification of biotin-tagged TR2/TR4 from MEL nuclear extract, mass spectrometry, experiment #1
[3] = target: biotin-FLAG-tagged TR2 and TR4 (biotin-FLAG-TR2 and biotin-FLAG-TR4 co-expressed in BirA-expressing MEL cells) (UniProt Q505F1); experiment: streptavidin purification of biotin-tagged TR2/TR4 from MEL nuclear extract, mass spectrometry, experiment #2

Chain of biotin-FLAG-tagged TR2 and TR4 (biotin-FLAG-TR2 and biotin-FLAG-TR4 co-expressed in BirA-expressing MEL cells) (Q505F1 whole entry, chain 1 of 2): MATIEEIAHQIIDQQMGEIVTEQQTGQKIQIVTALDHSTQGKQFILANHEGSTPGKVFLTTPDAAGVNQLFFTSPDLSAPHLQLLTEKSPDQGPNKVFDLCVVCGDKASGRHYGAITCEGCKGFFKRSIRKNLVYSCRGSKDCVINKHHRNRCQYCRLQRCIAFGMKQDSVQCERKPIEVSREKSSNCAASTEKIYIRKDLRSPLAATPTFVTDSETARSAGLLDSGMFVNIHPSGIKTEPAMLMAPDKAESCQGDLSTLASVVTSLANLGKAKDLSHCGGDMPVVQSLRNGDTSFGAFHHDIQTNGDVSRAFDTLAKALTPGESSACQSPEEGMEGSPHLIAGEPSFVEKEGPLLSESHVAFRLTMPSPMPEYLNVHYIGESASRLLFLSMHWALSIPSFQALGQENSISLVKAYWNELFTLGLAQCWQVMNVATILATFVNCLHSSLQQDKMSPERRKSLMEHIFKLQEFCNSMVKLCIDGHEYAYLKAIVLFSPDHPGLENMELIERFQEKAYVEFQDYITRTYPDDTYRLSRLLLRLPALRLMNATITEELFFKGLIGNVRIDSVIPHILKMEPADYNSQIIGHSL
Chain of biotin-FLAG-tagged TR2 and TR4 (biotin-FLAG-TR2 and biotin-FLAG-TR4 co-expressed in BirA-expressing MEL cells) (P49117 whole entry, chain 2 of 2, further chain): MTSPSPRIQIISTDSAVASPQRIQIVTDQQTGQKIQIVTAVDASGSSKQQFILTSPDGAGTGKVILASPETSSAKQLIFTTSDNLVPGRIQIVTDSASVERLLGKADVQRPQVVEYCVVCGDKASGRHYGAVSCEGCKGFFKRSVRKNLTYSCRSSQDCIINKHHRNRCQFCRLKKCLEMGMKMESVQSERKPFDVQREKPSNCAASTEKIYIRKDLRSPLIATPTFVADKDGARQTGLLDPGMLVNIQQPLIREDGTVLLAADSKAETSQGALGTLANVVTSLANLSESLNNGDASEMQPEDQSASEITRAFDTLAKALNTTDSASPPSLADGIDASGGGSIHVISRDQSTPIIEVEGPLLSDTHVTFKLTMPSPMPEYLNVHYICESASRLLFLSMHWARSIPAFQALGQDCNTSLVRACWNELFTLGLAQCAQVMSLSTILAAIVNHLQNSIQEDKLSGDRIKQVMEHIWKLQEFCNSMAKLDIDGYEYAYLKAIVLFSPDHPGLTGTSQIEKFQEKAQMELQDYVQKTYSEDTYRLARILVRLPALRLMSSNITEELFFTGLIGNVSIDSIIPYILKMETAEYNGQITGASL

Substance: BRG1 (from UniProt Q3TKT4 1-1613) (enzyme)
- % coverage [1]: 0.8%
- total peptides [1]: 1 peptides
- % coverage [2]: 1.4%
- total peptides [2]: 2 peptides

Substance: CAPER (from UniProt Q8VH51 2-530)
- % coverage [1]: 2.6%
- total peptides [1]: 1 peptides
- % coverage [3]: 4.9%
- total peptides [3]: 2 peptides

Substance: DNA methyltransferase 1 (DNMT1) (from UniProt P13864 1-1620) (enzyme)
- % coverage [1]: 10.4%
- total peptides [1]: 15 peptides
- % coverage [3]: 10.1%
- total peptides [3]: 14 peptides
- % coverage [2]: 13.5%
- total peptides [2]: 35 peptides

Substance: HCF1 (Host Cell Factor 1) (from UniProt Q61191 2-2045)
- % coverage [1]: 0.8%
- total peptides [1]: 1 peptides
- % coverage [3]: 1.4%
- total peptides [3]: 2 peptides
- % coverage [2]: 2.5%
- total peptides [2]: 4 peptides

Substance: HDAC1 (from UniProt O09106 1-482) (enzyme)
- % coverage [1]: 8.9%
- total peptides [1]: 3 peptides
- % coverage [2]: 4.4%
- total peptides [2]: 2 peptides

Substance: HDAC2 (from UniProt P70288 1-488) (enzyme)
- % coverage [1]: 4.9%
- total peptides [1]: 2 peptides

Substance: MTA1 (from UniProt Q8K4B0 1-715)
- % coverage [1]: 1.8%
- total peptides [1]: 1 peptides
- % coverage [3]: 1.7%
- total peptides [3]: 1 peptides
- % coverage [2]: 8.7%
- total peptides [2]: 7 peptides

Substance: MTA2 (from UniProt Q9R190 1-668)
- % coverage [2]: 2.8%
- total peptides [2]: 2 peptides

Substance: Mi2β (from UniProt Q6PDQ2 1-1915) (enzyme)
- % coverage [1]: 4.4%
- total peptides [1]: 6 peptides
- % coverage [3]: 5.3%
- total peptides [3]: 4 peptides
- % coverage [2]: 1.1%
- total peptides [2]: 1 peptides

Substance: NonO (from UniProt Q99K48 1-473)
- % coverage [1]: 11%
- total peptides [1]: 7 peptides
- % coverage [3]: 17.8%
- total peptides [3]: 9 peptides
- % coverage [2]: 7.8%
- total peptides [2]: 10 peptides

Substance: PSPC1 (from UniProt Q8R326 1-523)
- % coverage [1]: 4.6%
- total peptides [1]: 2 peptides
- % coverage [3]: 7.8%
- total peptides [3]: 3 peptides
- % coverage [2]: 3.3%
- total peptides [2]: 1 peptides

Substance: RbAp46 (from UniProt Q60973 2-425)
- % coverage [3]: 6.8%
- total peptides [3]: 3 peptides
- % coverage [2]: 2%
- total peptides [2]: 2 peptides

Substance: RbAp48 (from UniProt Q60972 2-425)
- % coverage [1]: 1.9%
- total peptides [1]: 1 peptides
- % coverage [3]: 6.3%
- total peptides [3]: 3 peptides
- % coverage [2]: 2%
- total peptides [2]: 2 peptides

Substance: SFPQ (from UniProt Q8VIJ6 1-699)
- % coverage [1]: 18.2%
- total peptides [1]: 10 peptides
- % coverage [3]: 15.9%
- total peptides [3]: 8 peptides
- % coverage [2]: 15.3%
- total peptides [2]: 12 peptides

Substance: Sin3A (from UniProt Q60520 1-1274)
- % coverage [1]: 1.1%
- total peptides [1]: 1 peptides

Substance: transcriptional intermediary factor (TIF)-1beta (from UniProt Q62318 2-834)
- % coverage [1]: 1.8%
- total peptides [1]: 1 peptides
- % coverage [3]: 9%
- total peptides [3]: 6 peptides
- % coverage [2]: 12.7%
- total peptides [2]: 16 peptides
